The record followed here is the RNAGym collection of RNA variant scans (doi:10.7554/elife.80360).

B1: HDV Ribozyme (parent)
chain: GGCCGGCAUGGUCCCAGCCUCCUCGCUGGCGCCGGCUGGGCAACAUUCCGAGGGGACCGUCCCCUCGGUAAUGGCGAAUGGGACCCA

The variants in this data set derive from B1. In words: self-cleavage, relative activity (ratio to wild type); higher = more cleavage; co-transcriptional.
Regarding GGCCGGCAUGGUCCCAGCCUCCUCGCUUGCGCAGGCUGGGCAACAUUCCGAGGGGACCGUCCCCUCGGUAAUGGCGAAUGGGACCCA, the self-cleavage turned out to be 0.124.

Consider GGCCGGCAUGGUCCCAGCCUCCUCGCUGUCGCCGGCUGGGAAACAUUCCGAGGGGACCGUCCCCUCGGUAAUGGCGAAUGGGACCCA, for which the self-cleavage came out at 0.0755.

Turning to GGCCGGCAUGGUCCCAGCCUCCUCGCUGGCGCCGGCUGGGCAUCAUUCCGAGGGGACCGUCCCCUCGGUAAUGGCGAAUGAGACCCA, the self-cleavage was determined as 0.148.

Take GGCCGGCAUGGUCCCAGCCUCCUCGCUGGCGCCGGCUGCGCAACAUUCCGAGGGGACCGUCCCCUCGGUAAUGGGGAAUGGGACCCA: the self-cleavage came out at 0.0831.

Turning to GGCCGGCAUGGUCCCAGCCUCCUCGCUGGCGCCGGCUGGGCACCAUUCCGAGGGGACCGUCCCCUCGGUAAUGGAGAAUGGGACCCA, the self-cleavage stood at 0.298.

As to GGCCGGCAUGGUCCCAGCCUCCUCGCUGGCGCCGGCUGGGCAACAUUCCGAGGGGACCGUCCCCUAGGUAAUGGCGAAUGGGACCAA, the self-cleavage worked out at 0.769.

Turning to GGCCGGCAUGGUCCCAGUCUCCUCGCUGGCUCCGGCUGGGCAACAUUCCGAGGGGACCGUCCCCUCGGUAAUGGCGAAUGGGACCCA, the self-cleavage is 0.119.

GGCCGGCAUGGUCCCAGCCUCCUCGCUGGCGUCGGCUGGGCAACUUUCCGAGGGGACCGUCCCCUCGGUAAUGGCGAAUGGGACCCA: the self-cleavage came out at 0.631.

On to GGCCGGCAUGGUCCCGGCCUCCUCGCUGGCGCCGGCUGGGCAACAUUCCGAGGGGACCGUCCCCUCGGUAAUGGCGAAUGGGAGCCA, for which the self-cleavage worked out at 0.623.

GGCCGACAUGGUCCCGGCCUCCUCGCUGGCGCCGGCUGGGCAACAUUCCGAGGGGACCGUCCCCUCGGUAAUGGCGAAUGGGACCCA: the self-cleavage stood at 0.573.

GGCCGGCAUGGUCCCAGCCUCCUCGCUGGCGCCGCCUGGGCAACAUUCCUAGGGGACCGUCCCCUCGGUAAUGGCGAAUGGGACCCA: the self-cleavage was 0.272.

Take GGCCGCCAUGGUCCCAGCCUCCUCGCUGGCGCCGGCUGGGCAACAUUCCGAGGGGACCGUCCCCUCGGUAAUGGCGAAUGGUACCCA: the self-cleavage worked out at 0.122.

On to GGCCGGCAUGGUCCCAGCCUCCUCGCUGGCGCCGGCUGGGCAACAUUCCGAGGGGACCGUCCCCUCGGUAAGGGCGAAUGAGACCCA, for which the self-cleavage worked out at 0.302.

GGCCCGCAUGGUCCCAGCCUCCUCGCUGGCGCCGGCUGGGCAACAUUCCGAGGGGACCGUCGCCUCGGUAAUGGCGAAUGGGACCCA: the self-cleavage is 0.145.

Regarding GGCCGGCAUGGUCCCAGCCUCCUCGCUGGCGCCGGCUGGGCAACAUUCCGAGGGGACCGUCCCCUCGGUAAUGGGGAAUGGGCCCCA, the self-cleavage came out at 0.489.

Turning to GGCCGGCAUGGUCCCAGCCUCCUCGCUGGCGCCGGCUGGGCACCAUUCCGAGGGGACCGUCCCCUCGGUAAUGGCGAAUGGGAUCCA, the self-cleavage is 0.135.

Turning to GGCCGGCAUGGUCCCAGCCUCCUCGCUGGCGCCGGCUGGGCAACACUCCGAGGGGACCGUCCCCUCGGUAAGGGCGAAUGGGACCCA, the self-cleavage came to 0.475.

Turning to GGCCGGCUUGGUCCCAGCCUCGUCGCUGGCGCCGGCUGGGCAACAUUCCGAGGGGACCGUCCCCUCGGUAAUGGCGAAUGGGACCCA, the self-cleavage was found to be 0.19.

Consider GGCCGGCAUGGUCCCAGCUUCCUCGCUGGCGCCGGCUGGCCAACAUUCCGAGGGGACCGUCCCCUCGGUAAUGGCGAAUGGGACCCA, for which the self-cleavage was determined as 0.0923.

In the case of GGCCCACAUGGUCCCAGCCUCCUCGCUGGCGCCGGCUGGGCAACAUUCCGAGGGGACCGUCCCCUCGGUAAUGGCGAAUGGGACCCA, the self-cleavage stood at 0.

On to GGCCGGCAUGGUCCCAACCUCCUCGCUAGCGCCGGCUGGGCAACAUUCCGAGGGGACCGUCCCCUCGGUAAUGGCGAAUGGGACCCA, for which the self-cleavage worked out at 0.

As to GGCCGGCAUGGUCCCAGCCUCCUCGCUGGCGCCGGCUGGGCAACAUUCCGACGGGACCGUCCCCUCGUUAAUGGCGAAUGGGACCCA, the self-cleavage was found to be 0.332.

As for GGCCGGCAUGGUCUCAGCCUCCUCGCUGGCGCCGGCUGGGCAAUAUUCCGAGGGGACCGUCCCCUCGGUAAUGGCGAAUGGGACCCA, the self-cleavage was determined as 0.831.

For GGCCGGCAUGGUCCCAGCCUCCUCGCUGGCGCCGGCUGGGCAACAUUCCGAGGGGACCGUCCCCUCGGUAAGUGCGAAUGGGACCCA, the self-cleavage came to 0.554.

As for GGCCGGCAUGGUCCCAGCCUCCUCGCUGGCGCCGGCUGGGCAACAUUCCGAGGGGACCGUCCCCUCGGUAAUCGCGAAUGGCACCCA, the self-cleavage was 0.175.

Consider GGCCGGCCUGGUCCCAGCCUCCUCGCUGGCGCCGGCUGGGCAACAUUCCGAGGGGACCGUCCCCUCGGUACUGGCGAAUGGGACCCA, for which the self-cleavage was determined as 0.308.

As to GGCCGGCAUGGUCCCAGCCUCCUCGCUGGCGCCGGCUGGGCAACAUUCCGAGGGGACCGUCCCGUCGGUAAUGGCGAUUGGGACCCA, the self-cleavage was found to be 0.18.

GGCCGGCAUGCUCCCAGCCUCCUCGCUGGCGCCGGCUGGGCAACAUUCCGAGGGGACCGUCCCCUCGGUAAUGGCCAAUGGGACCCA: the self-cleavage turned out to be 0.628.

With GGCCGGCAUGGUCCCAGCCUCCUCGCUGGCUCCGGCUGGGCAACAUUCCGAGGAGACCGUCCCCUCGGUAAUGGCGAAUGGGACCCA, the self-cleavage is 0.403.

Consider GGCCGGCAUGGUCCCAGCCUCCUCGCUGGCGCCGGCUCGGCAACAUUCCGAGGGGACCGUCCCCUCGGUAAUGGGGAAUGGGACCCA, for which the self-cleavage was found to be 0.104.

For the variant GGCCGGAAUGGUCCCAGCCUCCUCGCUGGAGCCGGCUGGGCAACAUUCCGAGGGGACCGUCCCCUCGGUAAUGGCGAAUGGGACCCA, the self-cleavage came out at 0.0282.

As for GGCCGGCAUGGUCCCAGCCUCCUCGCUGGCGCCGGCUGGGCAACAUUCCGAGGGGACCGUCCGCUCGGUCAUGGCGAAUGGGACCCA, the self-cleavage is 0.415.

For the variant GGCCGGCAUGGUCCCAGCCUCCUCGCUGGCGCCGGCUGAGUAACAUUCCGAGGGGACCGUCCCCUCGGUAAUGGCGAAUGGGACCCA, the self-cleavage worked out at 0.793.

For the variant GGCCGGCAUGGUCCCAGCCUCCUCGCUGGCGCCGGCUGGGUAAUAUUCCGAGGGGACCGUCCCCUCGGUAAUGGCGAAUGGGACCCA, the self-cleavage was 0.516.

Consider GGCCGGCAUGGUCCCAGCCUCCUCGCUGGCGCCGGCUGGACAACAUACCGAGGGGACCGUCCCCUCGGUAAUGGCGAAUGGGACCCA, for which the self-cleavage was determined as 0.997.

As for GGCCGGCAUCGUCCCAGCCUCCUCGCUGGCGCCGGCUGGGCAACAUUCCGAGGGGACCGUCCCCUCGAUAAUGGCGAAUGGGACCCA, the self-cleavage was 0.706.

Regarding GGCCGGCAUGGUCCCAGCCUCCUCGCUGGCGCUGGCUGGGCGACAUUCCGAGGGGACCGUCCCCUCGGUAAUGGCGAAUGGGACCCA, the self-cleavage stood at 0.427.

Turning to GUCCGGCAUGGUCCCAGCCUCCUCGCUGGCGCCGGCUGGGCAACAUUGCGAGGGGACCGUCCCCUCGGUAAUGGCGAAUGGGACCCA, the self-cleavage came to 0.0615.

As for GGCCGGCAUGGUACCAGCCUCCUCGCUGGCGCCGGCUGGGCAACAUUCCGAGGGGACCGUCCCCUCGAUAAUGGCGAAUGGGACCCA, the self-cleavage turned out to be 0.187.

In the case of GGCCGGCAUGGUCCCAGCCUCCUCGCUGGCGCCGGCUGGGCAACAUUCCGAGGUGACCGUCCCCUCGGUAAUGGCGAAUGGUACCCA, the self-cleavage is 0.432.

As to GGCUGGCAUGGUCCCAGCCUCCUCGCUGGCGCCGGCUGGGCAACACUCCGAGGGGACCGUCCCCUCGGUAAUGGCGAAUGGGACCCA, the self-cleavage came to 0.403.

With GGCCGUCAUAGUCCCAGCCUCCUCGCUGGCGCCGGCUGGGCAACAUUCCGAGGGGACCGUCCCCUCGGUAAUGGCGAAUGGGACCCA, the self-cleavage turned out to be 0.185.

In the case of GGCCGGCAUGGUCCCAGCCUCAUCGCUGGCGCCGUCUGGGCAACAUUCCGAGGGGACCGUCCCCUCGGUAAUGGCGAAUGGGACCCA, the self-cleavage was found to be 0.0791.

With GGCCUGCAUGGUCCCAGCCUCCUCGCUGGCGCCGGCUGGGAAACAUUCCGAGGGGACCGUCCCCUCGGUAAUGGCGAAUGGGACCCA, the self-cleavage stood at 0.172.

Regarding GGCCGGCAUGGUCGCAGCCUCCUCGCUGGCGCCGGCUGGGCAACAUUCCGAGGGGACCGUCCUCUCGGUAAUGGCGAAUGGGACCCA, the self-cleavage came to 0.9.

On to GGCCGGCAUGGUCCCAGCCUCCUCGCGGGCGCCGGCUGGGCAACACUCCGAGGGGACCGUCCCCUCGGUAAUGGCGAAUGGGACCCA, for which the self-cleavage is 0.997.

As to GGCCGGCAUGGUCCCAGCCUACUCGCUGGCGUCGGCUGGGCAACAUUCCGAGGGGACCGUCCCCUCGGUAAUGGCGAAUGGGACCCA, the self-cleavage was found to be 0.0978.

For the variant GGCCGGCAUGGUCCCAGCCUCCUCGCUGGCGCCGGCUGGGCAACAUUCCGAGGGGACCGUACCCUCGGUAAUGGCGAAUGUGACCCA, the self-cleavage came out at 0.347.

With GGCCGGCAUGGUCCCAGCCUCCUCGCUGGCGCCGGCUGGGCAACAUUCCGAGGGGACCGUCCCCUCGGUAAUGGCGAAUGGGAACAA, the self-cleavage came to 0.712.

For the variant GGCCGGCAUGGUCCCAGCCUCCUCGCUGGCGCCGGCUGGGCAACAUUCCGAGGGGACCGACCCCUCGGAAAUGGCGAAUGGGACCCA, the self-cleavage was 0.793.

Take GGCCGGCAUGGACCCAGCCUCCUCGCUGGCGCCGGCUGGGCAACAUUCCGAGGGGACCGUCCCCUCGGUAAUGGCGAAUGGGACCCC: the self-cleavage was found to be 0.251.

For the variant GGCCGGCAUGGACCCAGCCGCCUCGCUGGCGCCGGCUGGGCAACAUUCCGAGGGGACCGUCCCCUCGGUAAUGGCGAAUGGGACCCA, the self-cleavage stood at 0.

Turning to GGCCGGCAUGGUCCCAGCCUCCUCGCUGGCGCCGGCUGGGCAACAUUCCGAGUGGACCGUCCCCUCGGUUAUGGCGAAUGGGACCCA, the self-cleavage was found to be 0.739.

Turning to GGCCGGCAUGGUCCCAGCCUCCUCGCUGGCGCCGGCUGGGCAACAUUCCGAGGGGACCGUCCACUCGGUAAUGGCGAAUGGAACCCA, the self-cleavage worked out at 0.408.

Take GGGCGGCAUGGUCCCAGCCUCCUCGCUGGCGCCGGCUGGGCAACAUUCCGAGGGGACCGUCACCUCGGUAAUGGCGAAUGGGACCCA: the self-cleavage was 0.789.

Take GGCCGGCUUGGUCCCAGCCUCCUCGCUGGCGCCGGAUGGGCAACAUUCCGAGGGGACCGUCCCCUCGGUAAUGGCGAAUGGGACCCA: the self-cleavage stood at 0.0811.

On to GGCCGGCAUGGUCCCAGCCUCCUCGCUGGCGCCGGCUGGGCAACAUUCCGAGGGGACCGUCCCCACGGUAAUGGCGAAUGGGACCCC, for which the self-cleavage stood at 1.04.

Turning to GGCCGGCAUGGUCCCAGCCUCCUCGCUGGCGCCGGCUGGGCACCAUUCCGAGGGGACCGUCCCCUCGGUAAUGGCGAAUGGGACCAA, the self-cleavage was 0.443.

As for GGCCGGCAUGGUCGCAGCCUCCUCGCUGGCGCCGGCUGGGCAACAUUCCGAGGGCACCGUCCCCUCGGUAAUGGCGAAUGGGACCCA, the self-cleavage came to 0.665.

As for GGCCGGCAUGGUCCCAGCCUCAUCGCUGGGGCCGGCUGGGCAACAUUCCGAGGGGACCGUCCCCUCGGUAAUGGCGAAUGGGACCCA, the self-cleavage was 0.154.

For the variant GGCCGGCAUGGUCCCAGCCUCCUCGCUGGCGCCGGCUGGGCAACAUUCCGAGGGGACCGUCCCGCCGGUAAUGGCGAAUGGGACCCA, the self-cleavage was found to be 0.199.

With GGCCGGCAUGGUCCCAGCCUCCUCGCUGGCGCCGGCUGGGCAACAUUCCGAGGGGACCGUCCCCUCGGUAAUGGCAAAUGGUACCCA, the self-cleavage worked out at 0.601.

As for GGCCCGCAUGGUCCCAGCCUCCUCGCUGGCGCCGGCUGGGCAACAUUCCGAGGGGACCGUCCCCUCGGUAAUGGCGAAUGGGAGCCA, the self-cleavage was 0.332.

For GGCCGGCAUGUUCCCAGCCUCCUCGCUGGCGCCGGCUGGGCAACAUUCCGAGGGGACCGGCCCCUCGGUAAUGGCGAAUGGGACCCA, the self-cleavage came out at 0.381.
